This assay deals with recombinant GST-BNIP3 protein (rat BNIP3) (rat). In words: SDS-PAGE and Western blot; GST-BNIP3 incubated with isolated rat liver mitochondria for 1 hour at 37°C in calcium-free buffer; mitochondrial and supernatant fractions blotted with a BNIP3 antibody; 90 kD band.

By stoichiometry N is commonly meant the number of molecules, sites or subunits per partner or assembly. For the substance “recombinant GST-BNIP3 protein (rat BNIP3) (natural protein)”, the stoichiometry N was 2.

These data come from PMC4249980.
